What all share (assay): SPR (Biacore T200), antibody captured on protein L, FcγR injected
For experiment [1], the target named is T1, cynomolgus Fc gamma receptor Ia (cynomolgus monkey, UniProt P12314 16-288 (human entry)).
T1 construct: also called cyFcγRIa
T1 chain: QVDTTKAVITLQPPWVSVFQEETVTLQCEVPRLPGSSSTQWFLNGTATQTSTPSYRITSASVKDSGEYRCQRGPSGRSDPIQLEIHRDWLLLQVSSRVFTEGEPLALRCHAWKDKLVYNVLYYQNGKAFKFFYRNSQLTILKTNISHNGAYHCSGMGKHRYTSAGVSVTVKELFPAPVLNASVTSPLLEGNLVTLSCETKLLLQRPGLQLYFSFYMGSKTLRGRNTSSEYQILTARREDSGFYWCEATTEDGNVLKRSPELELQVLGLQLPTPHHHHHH
The procedure: (§1) The binding property of each sample to FcγRs at pH7.4 was determined at 25° C. using BIACORE® T200 instrument (Cytiva). First, protein L (BioVision) was immobilized onto all of the flow cells of a CM4 sensor chip using Amine Coupling Kit, type2 (Cytiva). 50 mM phosphate buffer (pH7.4) containing 150 mM NaCl, 0.05% Tween® 20 was used as the running buffer, and antibodies with the binding response of which were prepared to 500 RU or 2000 RU were captured on the sensor surface. Human and monkey FcγRs diluted with the running buffer were injected thereto and the amount bound with the antibodies was measured. hFcγRIa and cyFcγRIa were diluted to 8 nM, and the rest were diluted to 1000 nM. The sensor surface was regenerated every cycle, using 10 mM glycine hydrochloride solution, pH1.5 (prepared in-house).

Experiment [2] addresses T2, cynomolgus Fc gamma receptor IIa1 (cynomolgus monkey).
T2 construct: also called cyFcγRIIa1
T2 chain: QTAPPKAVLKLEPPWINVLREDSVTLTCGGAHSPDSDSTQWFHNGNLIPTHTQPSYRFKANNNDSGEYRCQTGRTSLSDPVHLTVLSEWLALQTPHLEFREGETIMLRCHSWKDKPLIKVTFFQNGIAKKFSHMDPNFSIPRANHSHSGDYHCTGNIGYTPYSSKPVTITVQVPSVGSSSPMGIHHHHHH
Here is the method:
as §1

In experiment [3] the target is T3, cynomolgus Fc gamma receptor IIa2 (cynomolgus monkey).
T3 construct: also called cyFcγRIIa2
T3 chain: T2 chain with P95T, T121A, I127K, A128S, K130N, D135N, R142Q
Here is the method:
as §1

In experiment [4] the target is T4, cynomolgus Fc gamma receptor IIa3 (cynomolgus monkey).
T4 construct: also called cyFcγRIIa3
T4 chain: T2 chain with P95T, T121A, A128S, H133P, D135N
Here is the method: as §1

Experiment [5] concerns the target T5, cynomolgus Fc gamma receptor IIb (cynomolgus monkey).
T5 construct: also called cyFcγRIIb
T5 chain: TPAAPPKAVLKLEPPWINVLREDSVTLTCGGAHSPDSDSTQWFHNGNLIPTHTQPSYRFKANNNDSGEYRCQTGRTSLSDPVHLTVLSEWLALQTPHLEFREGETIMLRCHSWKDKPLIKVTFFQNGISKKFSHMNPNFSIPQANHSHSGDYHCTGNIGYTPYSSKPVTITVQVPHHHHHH
Here is the method: as §1

The target of experiment [6] is T6, cynomolgus Fc gamma receptor IIIa (R) (cynomolgus monkey, UniProt Q8SPW2 17-208).
T6 construct: also called cyFcγRIIIa(R)
The procedure: as §1

Experiment [7] concerns the target T7, cynomolgus Fc gamma receptor IIIa (S) (cynomolgus monkey, UniProt Q8SPW2 21-206 at identity 1.00)).
T7 construct: also called cyFcγRIIIa(S)
T7 chain: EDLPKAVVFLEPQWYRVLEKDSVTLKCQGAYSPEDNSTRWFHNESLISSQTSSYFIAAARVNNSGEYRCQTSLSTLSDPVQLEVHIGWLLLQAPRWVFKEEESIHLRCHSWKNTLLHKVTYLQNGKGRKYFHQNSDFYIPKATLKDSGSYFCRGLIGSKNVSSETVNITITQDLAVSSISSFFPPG
The procedure: as §1

Numbering of substitutions follows the chain as printed.

T6 sequence (Q8SPW2 other isoform, or with tags, fused parts or gaps): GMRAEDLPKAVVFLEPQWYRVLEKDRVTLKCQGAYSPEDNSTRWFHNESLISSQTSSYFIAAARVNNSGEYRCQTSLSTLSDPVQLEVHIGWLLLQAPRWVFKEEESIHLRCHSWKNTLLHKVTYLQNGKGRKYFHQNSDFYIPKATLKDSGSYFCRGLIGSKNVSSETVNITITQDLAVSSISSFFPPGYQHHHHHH

B1: COS0637pHv2-FcgSil (antibody)
heavy: QVQLVESGGGVVQPGRSLRLSCAASGFRFSAYAMNWIRQPPGKGLEWIGLIYGKGSTFYASWAKERVTISVDTSKNQFSLKLSSVTAADTAVYYCARGRSVNYNSDFHLWGQGTLVTVSSASTKGPSVFPLAPSSKSTSGGTAALGCLVKDYFPEPVTVSWNSGALTSGVHTFPAVLQSSGLYSLSSVVTVPSSSLGTQTYICNVNHKPSNTKVDKRVEPKSCDKTHTCPPCPAPELRRGPSVFLFPPKPKDTLMISRTPEVTCVVVDVSDEDPEVKFNWYVDGVEVHNAKTKPREELYNSTYRVVSVLTVLHRDWLNGKEYKCKVSNTALPKPIEKTISKAKGQRREPQVYTLPPSREEMTKNQVSLTCLVKGFYPSDIAVEWESNGQPENNYKTTPPVLDSDGSFFLYSKLTVDKSRWQQGNVFSCSVLHEALHAHTTRKELSLSP
light: DIQMTQSPSSLSASVGDRVTITCQASQSLHDKKNLAWYQQKPGQPPKLLIYGASTLESGVPSRFSGSGSGTDFTLTISSLQPEDFATYYCQGEFSCSSADCNTFGQGTKVEIKRTVAAPSVFIFPPSDEQLKSGTASVVCLLNNFYPREAKVQWKVDNALQSGNSQESVTEQDSKDSTYSLSSTLTLSKADYEKHKVYACEVTHQGLSSPVTKSFNRGEC
notes: FcγR-silenced constant region FcgSil
Take B1: the binding result is reported as “no binding (tested: 8 nM)” in experiment [1]; “no binding (tested: 1000 nM)” in experiment [2]; “no binding (tested: 1000 nM)” in experiment [3]; “no binding (tested: 1000 nM)” in experiment [4]; “no binding (tested: 1000 nM)” in experiment [5]; “no binding (tested: 1000 nM)” in experiment [6]. Moreover, the binding result in experiment [7] is given as “no binding (tested: 1000 nM)”.

Values taken from patent US20240287163A1 (Chugai, published 2024).
